Earlier results as cited in patent publication US20260263505A1, “Uses of Compositions Comprising a Prebiotic Component” (Mead Johnson Nutrition Company, priority 2021, published 2026).

System: Rats
Conditions: after four weeks of diet, acute inescapable stressor

B1: lactoferrin: multifunctional iron-binding glycoprotein naturally present in milk; test diet of Mika et al. (protein, UniProt P24627 20-708, looked up)
Lactotransferrin: APRKNVRWCTISQPEWFKCRRWQWRMKKLGAPSITCVRRAFALECIRAIAEKKADAVTLDGGMVFEAGRDPYKLRPVAAEIYGTKESPQTHYYAVAVVKKGSNFQLDQLQGRKSCHTGLGRSAGWIIPMGILRPYLSWTESLEPLQGAVAKFFSASCVPCIDRQAYPNLCQLCKGEGENQCACSSREPYFGYSGAFKCLQDGAGDVAFVKETTVFENLPEKADRDQYELLCLNNSRAPVDAFKECHLAQVPSHAVVARSVDGKEDLIWKLLSKAQEKFGKNKSRSFQLFGSPPGQRDLLFKDSALGFLRIPSKVDSALYLGSRYLTTLKNLRETAEEVKARYTRVVWCAVGPEEQKKCQQWSQQSGQNVTCATASTTDDCIVLVLKGEADALNLDGGYIYTAGKCGLVPVLAENRKSSKHSSLDCVLRPTEGYLAVAVVKKANEGLTWNSLKDKKSCHTAVDRTAGWNIPMGLIVNQTGSCAFDEFFSQSCAPGADPKSRLCALCAGDDQGLDKCVPNSKEKYYGYTGAFRCLAEDVGDVAFVKNDTVWENTNGESTADWAKNLNREDFRLLCLDGTRKPVTEAQSCHLAVAPNHAVVSRSDRAAHVKQVLLHQQALFGKNGKNCPDKFCLFKSETKNLLFNDNTECLAKLGGRPTYEEYLGTEYVTAIANLKKCSTSPLLEACAFLTR
  stress-evoked cfos mRNA in the dorsal raphe nucleus: reduce
